Measurements as given in article PMC4884786.

Target: Fbxl17 (UniProt Q9UF56)
Experiment: HA-Sufu IP, Myc-Fbxl17 blot
Conditions: reference: Sufu wild type; sites S342,S346

- binding against the reference: stronger
Substance: Sufu (from UniProt Q9UMX1) Sufu S342A/S346A
